Experiments:
[1] = tested on: Helicobacter pylori (SS1 strain); experiment: Antibacterial activity in vitro by concentration, CFU assay, laser 10.0 J/cm^2; type: cell-based; details: for concentration at which colonies hardly appear / did not appear / Helicobacter pylori no longer grows / concentration from which the number of Helicobacter pylori colonies decreases: concentration based on the photosensitizer; for concentration at which colonies hardly appear / did not appear / Helicobacter pylori no longer grows / concentration from which the number of Helicobacter pylori colonies decreases / colony result value compared to the NC group at 50.0 μg/ml: laser 10.0 J/cm^2; for colony result value compared to the NC group at 50.0 μg/ml: 50.0 μg/ml free photosensitizer
[2] = tested on: Helicobacter pylori SS1 strain; experiment: Confocal microscopy: interaction with and inactivation of Helicobacter pylori SS1 strain; type: cell-based
Excerpt: (§1) Then, it was redispersed with D.W and the above process was repeated twice.
as §1

[3] = tested on: Helicobacter pylori (26695 strain); experiment: Inhibition zone analysis of photodynamic antibacterial effect by laser intensity; type: cell-based; details: 50.0 μg/ml based on Pheoa
AGS cells [4] = tested on: AGS cells
Procedure: AGS cells were dispensed into each well by 1 ml at a concentration of 2×10^4 cells/well in a 24-well plate and cultured at 37° C. and 5% CO2 for 24 hours.
After the reaction, the laser was irradiated in the range of 0-4.0 J/cm^2 using a laser of 50 mW intensity, and the MTT assay was performed to calculate the cell viability compared with the control.

AGS cells [5] = experiment: Cellular uptake in AGS cells (pheophorbide a fluorescence intensity); type: cell-based, human; details: 30 minutes at 36° C., equal concentration based on pheophorbide a
Procedure: After incubation, it was washed twice with DPBS, treated with trypsin and cells were collected and centrifuged (1500 rpm, 3 minutes) to remove the supernatant.

butyl-poly(3SL-lysine)10-HPP
number of Helicobacter pylori colonies at 10.0 μg/ml ([1]; 10.0 μg/ml based on HPP, laser 10.0 J/cm^2, decreased from 1×10^5 CFU/ml): 3×10^3 CFU/ml
concentration at which colonies hardly appear / did not appear / Helicobacter pylori no longer grows [1]: ≥ 25.0 µg/mL

butyl-poly(6SL-lysine)10-Pheoa
interaction with Helicobacter pylori (Cy5 fluorescence of pheophorbide a coinciding with SYTO 9) ([2]; SS1 strain 1×10^6 CFU/ml, 1 μg/ml based on pheophorbide a, 37° C., 2 hours): fluorescence of Cy5 (purple) of pheophorbide a of HSP did not appear
inactivation: propidium iodide (Red) fluorescence, cell membrane damage ([2]; SS1 strain, total 10 J/cm^2, 50 mW, Laser (+) for 3SL-LRHSP, Laser(+) and Laser(−) for the controls): propidium iodide (Red) fluorescence was not confirmed

butyl-poly(3SL-lysine)10-Ce6
concentration at which colonies hardly appear / did not appear / Helicobacter pylori no longer grows [1]: 1.0 µg/mL
concentration from which the number of Helicobacter pylori colonies decreases [1]: 0.5 µg/mL

3′-Sialyllactose-PEG-Pheophorbide a [3SL-PEG-Pheoa]
inhibition zone at laser intensities of 30, 40, and 50 J/cm^2 ([3]; 100 mW laser): inhibition zone was also identified
inhibition zone at 10.0 J/cm^2 laser ([3]; 100 mW laser, read two days later): inhibition zone in which Helicobacter pylori does not grow was confirmed
inhibition zone without laser irradiation ([3]; comparative group, laser not irradiated): no inhibition zone was found

3′-Sialyllactose-Pullulan-Pheophorbide a [Example 3SL-PU-Pheoa]
number of Helicobacter pylori colonies at 20.0 μg/ml ([1]; 20.0 μg/ml based on Pheoa, laser 10.0 J/cm^2, decreased from 1×10^5 CFU/ml): 5×10^3 CFU/ml
concentration at which colonies hardly appear / did not appear / Helicobacter pylori no longer grows [1]: ≥ 50.0 µg/mL

butyl-poly(3SL-lysine)10-SSiPC
number of Helicobacter pylori colonies at 25.0 μg/ml ([1]; 25.0 μg/ml based on SSiPC, laser 10.0 J/cm^2, decreased from 1×10^5 CFU/ml): 4×10^3 CFU/ml
concentration at which colonies hardly appear / did not appear / Helicobacter pylori no longer grows [1]: 50.0 µg/mL

succinylated silicon phthalocyanine [SSiPC, reference compound]
colony result value compared to the NC group at 50.0 μg/ml [1]: more than half

butyl-poly(3SL-lysine)10-PPIX
concentration at which colonies hardly appear / did not appear / Helicobacter pylori no longer grows [1]: 10.0 µg/mL
concentration from which the number of Helicobacter pylori colonies decreases [1]: 5.0 µg/mL

3′-sialyllactose-chitosan-pheophorbide a [3SL-Chitosan-Pheoa]
concentration at which colonies hardly appear / did not appear / Helicobacter pylori no longer grows [1]: 25.0 µg/mL
concentration from which the number of Helicobacter pylori colonies decreases [1]: 10.0 µg/mL

pheophorbide a [reference compound]
laser irradiation dose from which cytotoxicity appeared (AGS cells [4]): 0.8 J/cm^2
cellular uptake: pheophorbide a fluorescence intensity compared with the control (AGS cells [5]): 7×10^2
number of Helicobacter pylori colonies at 50.0 μg/ml ([1]; 50.0 μg/ml based on Pheoa, same amount of laser (10.0 J/cm^2)): 9×10^2 CFU/ml
colony result value compared to the NC group at 50.0 μg/ml [1]: slightly less than half

chlorin e6 [Ce6, reference compound]
colony result value compared to the NC group at 50.0 μg/ml [1]: more than half

Source: US12138308B2, “Polymer composite for helicobacter pylori recognition and composition for photodynamic therapy comprising same” (eNBiaR Inc., priority 2018, dated 2024)
